We go through one substance from US20110171242A1.

The assay addresses LTβR (whole, in cells) (human) (UniProt P36941). Description: cell-based or functional assay.

For “recombinant soluble LTα1β2 (from UniProt P01374 35-205; Q06643 49-244) (ligand)”, the IC50 for inhibition of HCMV pp28 expression (western blot) was 1 nM; the inhibition of the cytopathic effect of HCMV, against LTα and LIGHT was determined as 10 fold.
